The values below come from doi:10.1101/2019.12.18.881771 (bioRxiv, 2019).

No end group written: not given here. *: point of attachment. FITC = O=C1OC2(c3ccc(O)cc3Oc3cc(O)ccc32)c2ccc(NC(=S)*)cc21

The target in data set [1] is GIT1 FAT domain (aa 640-770) (mouse) (UniProt Q68FF6). Put plainly: ITC. A general note: ITC needs no label: the signal is the heat of the interaction.
Data set [2] deals with FITC-labelled β-Pix GBD peptide, wild type (mouse). Put plainly: fluorescence polarisation.
The target of another data set is T1, GIT1 SHD domain (mouse, UniProt Q68FF6 260-371).
T1 sequence (looked up): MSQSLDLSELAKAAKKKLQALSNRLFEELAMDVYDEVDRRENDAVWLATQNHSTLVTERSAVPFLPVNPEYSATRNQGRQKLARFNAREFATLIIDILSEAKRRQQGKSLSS
Put plainly: ITC.

The target of data set [3] is T2, GIT1 GAP-ANK-SHD (GAS) tandem (mouse, UniProt Q68FF6 1-371).
T2 sequence (looked up): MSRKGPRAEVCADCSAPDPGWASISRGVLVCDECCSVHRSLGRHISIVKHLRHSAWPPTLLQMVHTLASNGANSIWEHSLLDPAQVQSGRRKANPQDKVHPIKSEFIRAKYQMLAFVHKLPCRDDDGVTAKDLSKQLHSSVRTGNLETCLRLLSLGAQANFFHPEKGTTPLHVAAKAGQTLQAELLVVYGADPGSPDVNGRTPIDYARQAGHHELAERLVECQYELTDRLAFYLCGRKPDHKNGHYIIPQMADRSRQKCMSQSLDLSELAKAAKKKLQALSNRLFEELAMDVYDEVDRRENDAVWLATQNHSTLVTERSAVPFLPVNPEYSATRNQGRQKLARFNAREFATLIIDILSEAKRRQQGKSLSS
Put plainly: fluorescence polarisation.

The data set “SEC-MALS” concerns the molecule itself. Put plainly: SEC-MALS. (SEC sorts molecules by how far they enter the pores of the column.)
The target in data set [4] is T2, GIT1 GAP-ANK-SHD (GAS) tandem. Put plainly: ITC.

In general, Kd refers to the free concentration of one partner at which half of the binding sites on the other are occupied at equilibrium, for simple one-to-one binding. The term stoichiometry N denotes the number of molecules, sites or subunits per partner or assembly.

Chain of GIT1 FAT domain (aa 640-770) (mouse) (Q68FF6 640-770): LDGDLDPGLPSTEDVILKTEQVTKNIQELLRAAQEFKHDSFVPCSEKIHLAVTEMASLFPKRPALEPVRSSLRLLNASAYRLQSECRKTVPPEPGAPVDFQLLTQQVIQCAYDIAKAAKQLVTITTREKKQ

In data set [1], “Paxillin LD4 motif (aa 261-282) (peptide)” returned a Kd of 3 µM.

As to “GIT2 GAP-ANK-SHD (GAS) tandem, wild type, purified (domain or fragment)”, in data set [2], the Kd is 27 nM. On to Paxillin LD2 motif (peptide), for which the Kd in data set [1] was determined as 164 µM.

B1: β-Pix 494-555 (domain or fragment, mouse, UniProt Q9ES28-4 599-660, looked up)
chain: DLSKSPKTMKKLLPKRKPERKPSDEEFAVRKSTAALEEDAQILKVIEAYCTSAKTRQTLNSS
As for B1, the Kd with GIT1 SHD domain is ~150 nM. {FITC}-ALEEDAQILKVIEADCTSAKT (peptide, UniProt Q9ES28-4 633-653, looked up) [FITC-labelled β-Pix GBD Y542D peptide]: the Kd in data set [3] was ~76.4 µM.

B2: β-Pix coiled-coil domain, wild type (domain or fragment, mouse, UniProt Q9ES28-4 691-751, looked up)
chain: EEKSLVDTVYALKDEVQELRQDNKKMKKSLEEEQRARKDLEKLVRKVLKNMNDPAWDETNL
In the case of B2, the “stoichiometry N” value in the data set “SEC-MALS” is 3. Take ALEEDAQILKVIEAYCTSAKT [β-Pix GBD peptide (aa 528-548)]: the Kd in the data set with GIT1 SHD domain was ~180 nM; in data set [4], ~15 nM.

B3: GIT1 coiled-coil domain, wild type (domain or fragment, mouse, UniProt Q68FF6 426-483, looked up)
chain: SDGAVTLQEYLELKKALATSEAKVQQLMKVNSSLSDELRRLQREIHKLQAENLQLRQP
Turning to B3, in “SEC-MALS”, the “stoichiometry N” value stood at 2.
